{"source": "the supplement of paper PMC9112550", "about": "“Optimization of the antimicrobial peptide Bac7 by deep mutational scanning” (BMC Biology, 2022);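 note: peptides expressed intracellularly from a pBAD plasmid library in pooled LB shake-flask culture, induced with 0.3% L-arabinose, DNA abundance read by NGS, three biological replicates, DESeq2 with apeglm shrinkage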", "data": [{"tested_on": "Escherichia coli TOP10", "test": "shrunken log2 fold change of peptide-encoding DNA abundance (4.5 h post-induction vs induction); higher = less antimicrobial activity (less host growth inhibition)", "details": "time post-induction: 4.5 h; library: site-saturation at positions 5, 18, 19, 20", "values": [{"sequence": "RRIRFRPPRLPRPRPRPWFYPRP", "shrunken log2 fold change": -0.587}, {"sequence": "RRIRQRPPRLPRPRPRPFSWPRP", "shrunken log2 fold change": -0.0597}, {"sequence": "RRIRTRPPRLPRPRPRPYKPPRP", "shrunken log2 fold change": -0.551}, {"sequence": "RRIRHRPPRLPRPRPRPVNKPRP", "shrunken log2 fold change": -0.579}, {"sequence": "RRIRERPPRLPRPRPRPTHEPRP", "shrunken log2 fold change": 0.317}, {"sequence": "RRIRPRPPRLPRPRPRPVNEPRP", "shrunken log2 fold change": -0.00503}, {"sequence": "RRIRCRPPRLPRPRPRPCDQPRP", "shrunken log2 fold change": 0.143}, {"sequence": "RRIRDRPPRLPRPRPRPIHIPRP", "shrunken log2 fold change": -0.734}, {"sequence": "RRIRERPPRLPRPRPRPWKGPRP", "shrunken log2 fold change": -0.0443}, {"sequence": "RRIRTRPPRLPRPRPRPHRDPRP", "shrunken log2 fold change": 0.129}, {"sequence": "RRIRPRPPRLPRPRPRPRFCPRP", "shrunken log2 fold change": 0.225}, {"sequence": "RRIRHRPPRLPRPRPRPIMLPRP", "shrunken log2 fold change": -0.389}, {"sequence": "RRIRFRPPRLPRPRPRPPNTPRP", "shrunken log2 fold change": -0.0857}, {"sequence": "RRIRTRPPRLPRPRPRPYPTPRP", "shrunken log2 fold change": -0.374}, {"sequence": "RRIRVRPPRLPRPRPRPNLSPRP", "shrunken log2 fold change": -0.444}, {"sequence": "RRIRYRPPRLPRPRPRPDDPPRP", "shrunken log2 fold change": -0.239}, {"sequence": "RRIRLRPPRLPRPRPRPGENPRP", "shrunken log2 fold change": -0.00192}, {"sequence": "RRIRGRPPRLPRPRPRPQNNPRP", "shrunken log2 fold change": -0.0456}, {"sequence": "RRIRYRPPRLPRPRPRPCTCPRP", "shrunken log2 fold change": 0.0744}, {"sequence": "RRIRQRPPRLPRPRPRPLTHPRP", "shrunken log2 fold change": 0.045}, {"sequence": "RRIRHRPPRLPRPRPRPHYNPRP", "shrunken log2 fold change": -1.11}, {"sequence": "RRIRPRPPRLPRPRPRPASRPRP", "shrunken log2 fold change": 0.0846}, {"sequence": "RRIRYRPPRLPRPRPRPSKAPRP", "shrunken log2 fold change": -0.223}, {"sequence": "RRIRPRPPRLPRPRPRPISIPRP", "shrunken log2 fold change": -0.109}, {"sequence": "RRIRDRPPRLPRPRPRPEPHPRP", "shrunken log2 fold change": 0.533}, {"sequence": "RRIRIRPPRLPRPRPRPLQPPRP", "shrunken log2 fold change": 0.327}, {"sequence": "RRIRIRPPRLPRPRPRPLHCPRP", "shrunken log2 fold change": -1.13}, {"sequence": "RRIRWRPPRLPRPRPRPSYWPRP", "shrunken log2 fold change": -0.415}, {"sequence": "RRIRHRPPRLPRPRPRPHGWPRP", "shrunken log2 fold change": 0.0177}, {"sequence": "RRIRNRPPRLPRPRPRPGPRPRP", "shrunken log2 fold change": 0.641}, {"sequence": "RRIRQRPPRLPRPRPRPASAPRP", "shrunken log2 fold change": 0.196}, {"sequence": "RRIRLRPPRLPRPRPRPDQSPRP", "shrunken log2 fold change": 0.0621}, {"sequence": "RRIRGRPPRLPRPRPRPPRPPRP", "shrunken log2 fold change": 1.08}, {"sequence": "RRIRQRPPRLPRPRPRPMHQPRP", "shrunken log2 fold change": -0.195}, {"sequence": "RRIRERPPRLPRPRPRPKMRPRP", "shrunken log2 fold change": 0.962}, {"sequence": "RRIRERPPRLPRPRPRPWLIPRP", "shrunken log2 fold change": -0.397}, {"sequence": "RRIRPRPPRLPRPRPRPLDCPRP", "shrunken log2 fold change": 0.0595}, {"sequence": "RRIRQRPPRLPRPRPRPMDRPRP", "shrunken log2 fold change": 0.0291}, {"sequence": "RRIRCRPPRLPRPRPRPNNYPRP", "shrunken log2 fold change": -0.81}, {"sequence": "RRIRRRPPRLPRPRPRPLHMPRP", "shrunken log2 fold change": 0.0287}, {"sequence": "RRIRGRPPRLPRPRPRPWHRPRP", "shrunken log2 fold change": 0.0496}, {"sequence": "RRIRTRPPRLPRPRPRPDWYPRP", "shrunken log2 fold change": -0.622}, {"sequence": "RRIRMRPPRLPRPRPRPQEIPRP", "shrunken log2 fold change": -0.00046}, {"sequence": "RRIRNRPPRLPRPRPRPYCPPRP", "shrunken log2 fold change": -0.187}, {"sequence": "RRIRKRPPRLPRPRPRPISGPRP", "shrunken log2 fold change": "-7.33e-05"}, {"sequence": "RRIRFRPPRLPRPRPRPHCDPRP", "shrunken log2 fold change": -0.252}, {"sequence": "RRIRSRPPRLPRPRPRPFDQPRP", "shrunken log2 fold change": -0.256}, {"sequence": "RRIRHRPPRLPRPRPRPQQFPRP", "shrunken log2 fold change": -0.217}, {"sequence": "RRIRVRPPRLPRPRPRPWYLPRP", "shrunken log2 fold change": -0.425}, {"sequence": "RRIRYRPPRLPRPRPRPGNQPRP", "shrunken log2 fold change": -0.252}]}]}
